For assay [1], the target named is T1, Murine ortholog of 191P4D12, N90S mutant (on PC3 cells) (mouse, UniProt Q8R007 31-508).
T1 construct: whole, on cells; also called murine mutant ortholog
T1 sequence (looked up): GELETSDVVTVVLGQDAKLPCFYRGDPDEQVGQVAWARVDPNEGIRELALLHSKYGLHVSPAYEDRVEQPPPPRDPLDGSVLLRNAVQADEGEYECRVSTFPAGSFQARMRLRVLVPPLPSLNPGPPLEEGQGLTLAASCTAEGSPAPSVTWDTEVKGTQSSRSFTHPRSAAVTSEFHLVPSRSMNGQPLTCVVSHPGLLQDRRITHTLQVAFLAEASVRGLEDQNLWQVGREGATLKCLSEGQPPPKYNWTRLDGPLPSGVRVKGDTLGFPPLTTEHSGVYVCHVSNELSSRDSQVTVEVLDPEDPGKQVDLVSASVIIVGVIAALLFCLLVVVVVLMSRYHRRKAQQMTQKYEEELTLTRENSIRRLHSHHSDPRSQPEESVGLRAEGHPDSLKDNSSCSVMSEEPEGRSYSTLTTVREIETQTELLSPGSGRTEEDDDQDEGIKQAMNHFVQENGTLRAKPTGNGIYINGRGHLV
The assay is described as follows: FACS titration of Ha22-2(2,4)6.1 on PC3 cells expressing mouse 191P4D12 N90S.

The target in assay [2] is T2, Cynomolgus 191P4D12 (on PC3 cells) (cynomolgus monkey, UniProt A0A2K5WES1 32-510).
T2 construct: also called PC3-Cynomolgus-191P4D12; Cyno ortholog
T2 sequence: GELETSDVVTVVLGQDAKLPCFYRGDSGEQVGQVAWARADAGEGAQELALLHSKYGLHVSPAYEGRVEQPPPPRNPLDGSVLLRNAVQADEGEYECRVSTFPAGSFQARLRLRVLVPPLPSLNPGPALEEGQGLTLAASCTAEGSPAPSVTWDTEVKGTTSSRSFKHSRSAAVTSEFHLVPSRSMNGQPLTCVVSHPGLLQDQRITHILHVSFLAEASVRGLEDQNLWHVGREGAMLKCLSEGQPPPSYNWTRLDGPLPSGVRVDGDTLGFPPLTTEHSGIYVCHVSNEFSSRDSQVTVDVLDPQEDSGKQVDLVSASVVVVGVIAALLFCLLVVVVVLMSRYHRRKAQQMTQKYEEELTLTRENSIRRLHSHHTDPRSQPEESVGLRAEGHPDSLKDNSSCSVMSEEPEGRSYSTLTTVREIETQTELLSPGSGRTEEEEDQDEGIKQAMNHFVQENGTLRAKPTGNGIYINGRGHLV
The experiment in a line: FACS titration on PC3 cells expressing the cynomolgus ortholog.

The target of assay [3] is T3, Rat 191P4D12 (on PC3 cells) (rat, UniProt D3ZET1 31-509).
T3 construct: whole, on cells; also called PC3-rat-191P4D12; Rat ortholog
T3 sequence: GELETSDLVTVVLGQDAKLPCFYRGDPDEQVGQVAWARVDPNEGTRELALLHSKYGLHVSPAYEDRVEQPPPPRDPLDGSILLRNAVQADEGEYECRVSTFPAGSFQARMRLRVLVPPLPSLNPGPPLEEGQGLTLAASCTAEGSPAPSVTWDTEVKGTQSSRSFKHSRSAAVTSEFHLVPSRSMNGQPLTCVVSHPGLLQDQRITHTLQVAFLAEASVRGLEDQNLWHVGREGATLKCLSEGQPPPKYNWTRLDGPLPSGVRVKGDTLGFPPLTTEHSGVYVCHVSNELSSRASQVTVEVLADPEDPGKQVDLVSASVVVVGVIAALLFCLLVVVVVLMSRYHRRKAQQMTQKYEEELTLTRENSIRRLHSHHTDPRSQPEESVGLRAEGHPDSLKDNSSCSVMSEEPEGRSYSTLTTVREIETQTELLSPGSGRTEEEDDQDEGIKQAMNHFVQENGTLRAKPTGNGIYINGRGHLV
The experiment in a line: FACS on PC3 cells expressing the rat ortholog. An excerpt:
(§1) The 191P4D12 protein of human, cynomolgus, rat and murine origin was overexpressed recombinantly in a PC3 cell line to determine cross-reactivity of Ha22-2(2,4)6.1 to these orthologs. It was shown that Ha22-2(2,4)6.1 strongly cross-reacts with cynomolgus and rat orthologs of 191P4D12 (FIG. 23).

For assay [4], the target named is T3, Rat 191P4D12 (on PC3 cells). The assay is described as follows: FACS titration on PC3 cells expressing the rat ortholog.
Assay [5] addresses T2, Cynomolgus 191P4D12 (on PC3 cells). The assay is described as follows: FACS on PC3 cells expressing the cyno ortholog.
Excerpt: as §1

Assay [6] has as its target T4, Murine ortholog of 191P4D12, wild type (on PC3 cells) (mouse, UniProt Q8R007 31-508).
T4 construct: whole, on cells; also called mouse 191P4D12
T4 sequence (looked up): T1 sequence (looked up) with S60N
The experiment in a line: FACS on PC3 cells expressing the murine ortholog.
Excerpt: as §1

Experimental findings from patent US20260034234A1 (AGENSYS, published 2026) are described below.

Changes are numbered by the printed parent chain.

B1: Ha22-2(2,4)6.1 MAb (antibody, human IgG1, kappa, V domains shown)
VH: EVQLVESGGGLVQPGGSLRLSCAASGFTFSSYNMNWVRQAPGKGLEWVSYISSSSSTIYYADSVKGRFTISRDNAKNSLSLQMNSLRDEDTAVYYCARAYYYGMDVWGQGTTVTVSS
VL: DIQMTQSPSSVSASVGDRVTITCRASQGISGWLAWYQQKPGKAPKFLIYAASTLQSGVPSRFSGSGSGTDFTLTISSLQPEDFATYYCQQANSFPPTFGGGTKVEIKR
notes: Fully human IgG1 kappa from XenoMouse; Used biotinylated in the Western blot; also called 191P4D12 MAb Ha22-2(2,4)6.1; Ha22-(2,4)6.1 MAb
For B1, the EC50 (read off the curve) – broadly, the concentration needed to bring the measured effect to its halfway point – in assay [1] was roughly 0.4 nM; in assay [2], roughly 0.3 nM; in assay [4] it was roughly 0.3 nM. For the same molecule, the EC50 (usually the midpoint of the concentration-response curve) was determined as 0.44 nM in assay [3], 0.3 nM in assay [5] and 70.3 nM in assay [6].
